Values belong to the binder of their own block, whether it stands above or below them.
Legend:
[1] = molecular target: T1, cynomolgus monkey CD3 on cynomolgus monkey PBMC / T cells (cynomolgus monkey, UniProt Q95LI5 22-198); test: flow cytometry on cyno T cells (cynomolgus monkey PBMC)
T1 construct: whole, on cells; CD3 complex on primary cells; also called cyno CD3
Method: (§1) Binding of EGFR×CD3 bispecific antibodies to cynomolgus monkey CD3 and EGFR expressing cells was determined by flow cytometry.
(§2) Briefly, 1×10⁵ cynomolgus monkey PBMC(CD3+/EGFR−) cells or CHOK1-cynoPro1 (EGFR+/CD3−) cells were incubated for 60 minutes at 4° C. with serial dilutions of EGFR×CD3 bispecific or hIgG4 isotype control antibodies. After washing twice with cold PBS supplemented with 1% bovine serum albumin (wash buffer), cell surface bound antibody was detected by incubating the cells with Fluorescence-labeled anti-human IgG antibody for 30 minutes at 4° C. Cells were washed twice in the same buffer and the mean fluorescence (MFI) of stained cells was measured using a FACS Canto II cytometer (BD Biosciences). Wells containing no antibody or secondary antibody only were used to establish background fluorescence. Four-parameter non-linear regression analysis was used to obtain EC₅₀ values for cell binding using GraphPad Prism software.

[2] = molecular target: T2, human CD3 on Jurkat.2B8 (CD3+/EGFR-) cells (human, UniProt P07766 23-207); test: flow cytometry on Jurkat.2B8 (CD3+/EGFR-) cells
T2 construct: whole, on cells; CD3 complex on cells; also called hCD3
T2 sequence (P07766 23-207): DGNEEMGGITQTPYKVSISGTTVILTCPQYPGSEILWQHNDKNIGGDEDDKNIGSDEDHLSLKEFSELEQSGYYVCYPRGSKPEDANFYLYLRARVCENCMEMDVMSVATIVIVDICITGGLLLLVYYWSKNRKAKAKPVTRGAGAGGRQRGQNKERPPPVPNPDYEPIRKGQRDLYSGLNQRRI
Method: Binding of EGFR×CD3 bispecific antibodies to human CD3 and EGFR expressing cells was determined by flow cytometry.
as §2, with “After” for “Briefly, 1×10⁵ cynomolgus monkey PBMC(CD3+/EGFR−) cells or CHOK1-cynoPro1 (EGFR+/CD3−) cells were incubated for 60 minutes at 4° C. with serial dilutions of EGFR×CD3 bispecific or hIgG4 isotype control antibodies. After”

[3] = molecular target: T3, cynomolgus monkey EGFR on CHOK1-cynoPro1 (EGFR+/CD3-) cells (cynomolgus monkey, UniProt A0A2K5WK39 25-1210); test: flow cytometry on CHOK1-cynoPro1 cells
T3 construct: whole, on cells; also called cyno EGFR
Method: as §1, §2

[4] = molecular target: T2, human CD3 on Jurkat.2B8 (CD3+/EGFR-) …; test: FACS affinity on Jurkat.2B8 cells, quantitative beads
Method: Tested antibodies were serially diluted in wash buffer (1×PBS/1% BSA) and incubated with cells at 4° C. for 1 h. […] The cells were then washed once and re-suspended in 1×PBS/1% BSA, and analyzed by flow cytometry. Fluorescence intensity will be converted to bound molecules/cell based on the quantitative beads (Quantum™ MESF Kits, Bangs Laboratories, Inc.).

T1 sequence (Q95LI5 22-198): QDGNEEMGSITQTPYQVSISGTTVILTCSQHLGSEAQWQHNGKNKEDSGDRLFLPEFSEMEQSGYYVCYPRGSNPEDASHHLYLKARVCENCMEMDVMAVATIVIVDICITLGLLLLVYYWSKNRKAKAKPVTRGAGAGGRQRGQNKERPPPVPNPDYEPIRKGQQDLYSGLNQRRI

- EC50 [1]: 0.21 nM
- EC50 [2]: 0.15 nM
B1: W3311-2.306.4-z1-uIgG1K (antibody, V domains shown)
VH: QVQLVQSGAEVKKPGSSVKVSCKASGFAFTDYYIHWVRQAPGQGLEWMGWISPGNVNTKYNENFKGRVTITADKSTSTAYMELSSLRSEDTAVYYCARDGYSLYYFDYWGQGTLVTVSS
VL: DIVMTQSPDSLAVSLGERATINCKSSQSLLNSRTRKNYLAWYQQKPGQPPKLLIYWASTRQSGVPDRFSGSGSGTDFTLTISSLQAEDVAVYYCTQSHTLRTFGGGTKVEIK
notes: also called humanized anti-CD3 antibody; Humanized anti-CD3 mAb

- EC50 [3]: 0.5 nM
B2: Panitumumab (antibody, human IgG2, V domains shown)
VH: QVQLQESGPGLVKPSETLSLTCTVSGGSVSSGDYYWTWIRQSPGKGLEWIGHIYYSGNTNYNPSLKSRLTISIDTSKTQFSLKLSSVTAADTAIYYCVRDRVTGAFDIWGQGTMVTV
VL: DIQMTQSPSSLSASVGDRVTITCQASQDISNYLNWYQQKPGKAPKLLIYDASNLETGVPSRFSGSGSGTDFTFTISSLQPEDIATYFCQHFDHLPLAFGGGTKVEIK
notes: the VH end in the benchmark IgG may differ; also called Anti-EGFR antibody; anti-EGFR mAb

- EC50 [1]: 26.4 nM
- EC50 [2]: 20.8 nM
- Kd [4]: 4.7 nM
B3: W3448-T3U1.E17R-1.uIgG4V9 (bispecific antibody)
heavy 1: QVQLVQSGAEVKKPGSSVKVSCKASGFAFTDYYIHWVRQAPGQGLEWMGWISPGNVNTKYNENFKGRVTITADKSTSTAYMELSSLRSEDTAVYYCARDGYSLYYFDYWGQGTLVTVSSASTKGPSVFPLAPCSRSTSESTAALGCLVKDYFPEPVTVSWNSGALTSGVHTFPAVLQSSGLYSLSSVVTVPSSSLGTKTYTCNVDHKPSNTKVDKRVESKYGPPCPPCPAPEAAGGPSVFLFPPKPKDTLMISRTPEVTCVVVDVSQEDPEVQFNWYVDGVEVHNAKTKPREEQFNSTYRVVSVLTVLHQDWLNGKEYKCKVSNKGLPSSIEKTISKAKGQPREPQVYTLPPCQEEMTKNQVSLWCLVKGFYPSDIAVEWESNGQPENNYKTTPPVLDSDGSFFLYSRLTVDKSRWQEGNVFSCSVMHEALHNHYTQKSLSLSLGK
light 1: not shown
heavy 2: QVQLQESGPGLVKPSETLSLTCTVSGGSVSSGDYYWTWIRQSPGKGLEWIGHIYYSGNTNYNPSLKSRLTISIDTSKTQFSLKLSSVTAADTAIYYCVRDRVTGAFDIWGQGTMVTVLEDLKNVFPPEVAVFEPSEAEISHTQKATLVCLATGFYPDHVELSWWVNGKEVHSGVCTDPQPLKEQPALQDSRYALSSRLRVSATFWQNPRNHFRCQVQFYGLSENDEWTQDRAKPVTQIVSAEAWGRYGPPCPPCPAPEAAGGPSVFLFPPKPKDTLMISRTPEVTCVVVDVSQEDPEVQFNWYVDGVEVHNAKTKPREEQFNSTYRVVSVLTVLHQDWLNGKEYKCKVSNKGLPSSIEKTISKAKGQPREPQVCTLPPSQEEMTKNQVSLSCAVKGFYPSDIAVEWESNGQPENNYKTTPPVLDSDGSFFLVSRLTVDKSRWQEGNVFSCSVMHEALHNHYTQKSLSLSLGK
light 2: DIQMTQSPSSLSASVGDRVTITCQASQDISNYLNWYQQKPGKAPKLLIYDASNLETGVPSRFSGSGSGTDFTFTISSLQPEDIATYFCQHFDHLPLAFGGGTKVEIKPDIQNPDPAVYQLRDSKSSDKSVCLFTDFDSQTQVSQSKDSDVYITDKCVLDMRSMDFKSNSAVAWSQKSDFACANAFQNSIIPEDTFFPSPESS
notes: Four-chain Ig-like bispecific: anti-CD3 Fab arm (T3) and anti-EGFR chimeric Fab arm with TCR constant domains (U1); IgG4 Fc with S228P, F234A, L235A and knob/hole mutations already contained in the full-length entries; also called lead BsAb; anti-CD3/anti-EGFR bispecific antibody

Source: patent publication US20230008090A1 (WUXI BIOLOGICS IRELAND, published 2023)
